Target: T1, MBD3-GFP, O95983
T1 chain: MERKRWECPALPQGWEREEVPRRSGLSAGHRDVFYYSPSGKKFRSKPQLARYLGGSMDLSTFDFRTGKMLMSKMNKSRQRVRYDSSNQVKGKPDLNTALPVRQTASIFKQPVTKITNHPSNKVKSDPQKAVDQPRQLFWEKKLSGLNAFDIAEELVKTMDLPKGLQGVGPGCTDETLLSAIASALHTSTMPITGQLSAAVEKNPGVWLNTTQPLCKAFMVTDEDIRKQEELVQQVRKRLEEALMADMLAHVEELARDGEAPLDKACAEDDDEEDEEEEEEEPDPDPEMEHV
Test: affinity purification with mass spectrometry
Conditions: remark: other sources report otherwise

stoichiometry N: 2 per MBD3
B1: DOC-1, O14519 1-115 (natural protein)
chain: MSYKPNLAAHMPAAALNAAGSVHSPSTSMATSSQYRQLLSDYGPPSLGYTQGTGNSQVPQSKYAELLAIIEELGKEIRPTYAGSKSAMERLKRGIIHARGLVRECLAETERNARS

— publication PMC3592467
